Measurements as given in paper PMC9645627, “Ydj1 interaction at nucleotide-binding-domain of yeast Ssa1 impacts Hsp90 collaboration and client maturation” (PLOS Genetics, 2022).

B1: His6-Ydj1 (natural protein, S. cerevisiae, UniProt P25491 1-409, looked up)
chain: MVKETKFYDILGVPVTATDVEIKKAYRKCALKYHPDKNPSEEAAEKFKEASAAYEILSDPEKRDIYDQFGEDGLSGAGGAGGFPGGGFGFGDDIFSQFFGAGGAQRPRGPQRGKDIKHEISASLEELYKGRTAKLALNKQILCKECEGRGGKKGAVKKCTSCNGQGIKFVTRQMGPMIQRFQTECDVCHGTGDIIDPKDRCKSCNGKKVENERKILEVHVEPGMKDGQRIVFKGEADQAPDVIPGDVVFIVSERPHKSFKRDGDDLVYEAEIDLLTAIAGGEFALEHVSGDWLKVGIVPGEVIAPGMRKVIEGKGMPIPKYGGYGNLIIKFTIKFPENHFTSEENLKKLEEILPPRIVPAIPKKATVDECVLADFDPAKYNRTRASRGGANYDSDEEEQGGEGVQCASQ
notes: Ydj1, Hsp40 co-chaperone of S. cerevisiae; His6 is named and used for capture in the pull-down; also called Hsp40
B2: Ssa1-D158N, purified (natural protein)
chain: not shown
notes: Ssa1, cytosolic Hsp70 of S. cerevisiae, with D158N; the methods say that the tag was removed; not shown: His6, N-terminal, cleaved
B3: Ssa1-T175N, purified (natural protein)
chain: not shown
notes: Ssa1, cytosolic Hsp70 of S. cerevisiae, with T175N; the methods say that the tag was removed; not shown: His6, N-terminal, cleaved
B4: Ssa1 (wt), purified (natural protein)
chain: not shown
notes: Ssa1, cytosolic Hsp70 of S. cerevisiae; the methods say that the tag was removed; also called wt-Ssa1; wt Ssa1; not shown: His6, N-terminal, cleaved

Key:
Ssa1 (wt), purified = target: B4; assay: BLI; Ssa1, Ssa2, Ssa3 and Ssa4 with Ydj1; set-up not told here (as in ref. 26)
Ssa1-T175N, purified = target: B3; assay: BLI; Ydj1 (0.75 uM) immobilised on the biosensor, Ssa Hsp70 at varying concentrations as analyte, with 5 mM ATP; conditions: both partners purified
Ssa1-D158N, purified = target: B2; assay: as above; conditions: both partners purified
His6-Ydj1 = target: B1; assay: cell-based or functional assay
Hsp82, purified [1] = target: T1, Hsp82, purified (S. cerevisiae, UniProt P02829 1-709); assay: cell-based or functional assay
Hsp82, purified [2] = target: T1, Hsp82, purified; assay: BLI; Octet K2, 30°C; Hsp82 immobilised on AR2G biosensors by amine coupling; Hsp70 1.0 uM as analyte in 25 mM Hepes pH 7.4, 150 mM NaCl, 20 mM MgCl2, 20 mM KCl, 0.1% Tween-20, 0.05% Triton X-100, 1 mM ATP; association and dissociation 200 s each; conditions: both partners purified

T1 sequence (P02829 whole entry): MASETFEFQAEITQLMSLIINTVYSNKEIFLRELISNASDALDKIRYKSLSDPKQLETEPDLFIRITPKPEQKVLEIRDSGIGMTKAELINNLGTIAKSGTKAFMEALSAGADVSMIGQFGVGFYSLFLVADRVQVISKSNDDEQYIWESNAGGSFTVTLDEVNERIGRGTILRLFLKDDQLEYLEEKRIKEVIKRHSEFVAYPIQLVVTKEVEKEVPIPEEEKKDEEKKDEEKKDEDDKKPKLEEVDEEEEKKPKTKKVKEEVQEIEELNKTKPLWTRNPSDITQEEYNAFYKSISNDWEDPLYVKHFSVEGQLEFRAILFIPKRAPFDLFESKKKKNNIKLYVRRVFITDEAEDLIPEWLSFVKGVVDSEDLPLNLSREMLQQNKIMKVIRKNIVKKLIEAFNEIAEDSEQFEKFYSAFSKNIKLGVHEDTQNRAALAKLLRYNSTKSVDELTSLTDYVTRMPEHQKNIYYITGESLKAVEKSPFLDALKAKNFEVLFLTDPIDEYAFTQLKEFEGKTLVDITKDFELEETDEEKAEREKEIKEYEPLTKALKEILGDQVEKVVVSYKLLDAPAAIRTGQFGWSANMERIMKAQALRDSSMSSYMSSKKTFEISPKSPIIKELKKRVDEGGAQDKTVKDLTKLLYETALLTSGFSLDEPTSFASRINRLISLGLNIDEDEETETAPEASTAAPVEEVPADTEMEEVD
Ssa1-D158N, purified, sequence (P10591 whole entry D158N): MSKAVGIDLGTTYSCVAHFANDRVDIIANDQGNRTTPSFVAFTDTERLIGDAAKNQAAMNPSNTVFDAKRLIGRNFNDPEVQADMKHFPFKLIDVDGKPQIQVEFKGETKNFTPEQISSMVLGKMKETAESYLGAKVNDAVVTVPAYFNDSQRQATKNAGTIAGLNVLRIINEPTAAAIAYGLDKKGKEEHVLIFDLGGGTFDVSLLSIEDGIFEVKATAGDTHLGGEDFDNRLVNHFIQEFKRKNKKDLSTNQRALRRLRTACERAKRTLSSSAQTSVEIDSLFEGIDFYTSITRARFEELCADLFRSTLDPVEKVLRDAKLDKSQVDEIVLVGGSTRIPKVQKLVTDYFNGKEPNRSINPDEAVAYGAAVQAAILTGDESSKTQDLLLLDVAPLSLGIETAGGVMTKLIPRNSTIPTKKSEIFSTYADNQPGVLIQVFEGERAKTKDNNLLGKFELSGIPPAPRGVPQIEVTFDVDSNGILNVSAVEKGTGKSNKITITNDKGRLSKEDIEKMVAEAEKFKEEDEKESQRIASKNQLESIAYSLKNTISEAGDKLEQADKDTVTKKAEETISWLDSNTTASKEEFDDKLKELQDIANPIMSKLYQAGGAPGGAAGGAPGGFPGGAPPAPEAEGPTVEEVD
Ssa1-T175N, purified, sequence (P10591 whole entry T175N): as the sequence (P10591 whole entry D158N) above, with N158D, T175N counted along it
Ssa1 (wt), purified, sequence (P10591 whole entry): as the sequence (P10591 whole entry D158N) above, with N158D counted along it

B1
binding result (Ssa1 (wt), purified): binds | binding result (Ssa1-T175N, purified): binds | binding result (Ssa1-D158N, purified): binds

B2
refolding of heat-denatured luciferase by Hsp70 with Ydj1, fold, time course to 30 min (wt Ssa1:Ydj1: 30-fold) (His6-Ydj1): ~60 fold | fold increase in luciferase refolding upon addition of Hsp90 (Hsp82) and Sti1 to a reaction with Ydj1 and Hsp70 (wt Ssa1: 4) (Hsp82, purified [1]): 2 fold | fold by which the BLI response of wt-Ssa1 at equilibrium is higher than that of this mutant (Hsp82, purified [2]): ~2 fold

B3
refolding of heat-denatured luciferase by Hsp70 with Ydj1, fold, time course to 30 min (wt Ssa1:Ydj1: 30-fold) (His6-Ydj1): ~60 fold | fold increase in luciferase refolding upon addition of Hsp90 (Hsp82) and Sti1 to a reaction with Ydj1 and Hsp70 (wt Ssa1: 4) (Hsp82, purified [1]): 2 fold | fold by which the BLI response of wt-Ssa1 at equilibrium is higher than that of this mutant (Hsp82, purified [2]): ~4 fold

B4
binding result (Hsp82, purified [2]): binds
